18 sequences from the nanobody polyreactivity screen of Harvey et al. (2022) can be followed below.

This series in a line: yeast display, Sf9 membrane polyspecificity reagent, FACS + sequencing; frameworks hold sequencing errors. An outline of the steps: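 Nanobodies from a synthetic yeast display library (Saccharomyces cerevisiae BJ5465), induced 36–48 hours with galactose, were stained 1 hour at 4 °C with 10% biotinylated, detergent-solubilized Sf9 membrane reagent, enriched on streptavidin microbeads, then FACS-sorted. Anti-HA (expression) and streptavidin (reagent binding) fluorescence set low and high (top ~1%) gates. Polyreactivity labels come from the gate of origin. Genes were colony-PCR amplified, MiSeq 2 × 250 sequenced and filtered by CDR length.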
In the case of “QVQLVESGGGLVHAGGSLRLSCAASGFTFGGYAMGWYRQAPGIEREFVAAISSSGGRTYYADSVKRRFTISRDNAKNTVYLPMNSLKPEDTAVYDCNVGQYLRARRPVDSWGQGTQVSVSS”, the “polyreactivity (PSR sort gate)” value is “high polyreactivity”.
With “QVHLVESGGGLVQAGGSLRLSCAASGSTFPYYDMGWYRQAPGKERELVAAITYNGGNTYYADSVKGRFTISRDNAKNTVYLQMNSLKPEDTAVYYCAADGTLARLYYWATGDEDGYWGQGTQVTVSS”, the “polyreactivity (PSR sort gate)” value is reported as “low polyreactivity”.
As to “QVQLVESGGGLVQAGGSLRLSCAASGSTFYWYTMGWYRQAPGKERELVARISSSGSTNYADSVKGRFTISRDNAKNTVYLQMNSLKPEDTAVYYCNKDWIYRGYDYWGQGTQVTVSS”, the “polyreactivity (PSR sort gate)” value is reported as “high polyreactivity”.
Take “QVQLVESGGGLVQAGGSLRLSCAASGLTLGSYAMGWYRQAPGKERELVAAISRRSGRTYYADSVKGRFTISRDNAKNTVYLQMNSLKPEDTAVYYCNRGYTAQVYTEFDYWGQGTQVTVSS”: the “polyreactivity (PSR sort gate)” value is “low polyreactivity”.
As to “QVQLVESGGGLVQAGGSLRLSCAASGIIFTLYATGWYRQAPGKERELVAAISGSGGSTYYADSVKGRFTISRDNAKNTVYLQMNSLKPEDTAVYYCAARGVRGTGLDSRMYYWGQGTQVTVSS”, the “polyreactivity (PSR sort gate)” value is on record as “high polyreactivity”.
With “QVQLVESGGGLVQAGGSLRLSCAASGRIFDLYTMGWYRQAPGKERELVAAIRWSDGSTYYADSVTGRFTISRDNAKNTVYLQMNSLKPEDTAVYYCAADTRTSYYNDDYDYWGQGTQVTVSS”, the “polyreactivity (PSR sort gate)” value was “low polyreactivity”.
Next, “QVQLVESGGGLVQAGGSLRLSCAASGRIFGYYAMGWYRQAPGKERELVAAISYNVVSTNYADSVKGRFTISRDNPKNTVYLQMNSLKPEDTAVYYCAADYGRPYTAFDYWGQGTQVTVSS”: “low polyreactivity”; “QVHLVESGGGLVQAGGSLRLSCAASGSTLVYNDMGWYRQAPGKEREFVAAIRSNDGSTYYADSVKGRFTISRDNAKNTVYLQMNSLKPEDTAVYYCAAERGYPKFGYWGQGTQVTVSS”: “low polyreactivity”; “QVQLVESGGGLVQAGGSLRLSCAASGSTFSTNVMGWYRQAPGKERELVAAISTIGGSTYADSVKGRFTISRDNAKNTVYLQMNSQKPEDTAVYYCAKRSRYPYYPYGYWGQGTQVTVSS”: “high polyreactivity”.
With “QVQLVESGGGLVQGGGSLRLSCAASGLIFARNAMGWYRQAPGKERELVAAISKRGGSTFYADSVKGRFTISRDNAKKTVYLQMNSLKPEDTAVYYCHARSSETWHGDYWGQGTQLTVSS”, the “polyreactivity (PSR sort gate)” value is reported as “high polyreactivity”.
Consider “QVQLVESGGGLVQAGGSLRLTCAASGSTFPRYAMGWYRQAPGKEREFVAVIWSGGSTYYADSVKGRFTISRDNAKNTVYLQMNSLKPEDSAVYYCAAEYHTLSKYSGYATHDYWGQGTQVTVSS”, for which the “polyreactivity (PSR sort gate)” value is given as “low polyreactivity”.
As to “QVQLVESGGCLVQAGGSLRLSCAASGYTFVHYDMGWYRQAPGKEREFVAAISGATYYADSVTGRFTISRDNAKNTVYLQMNSLKLEDTAVYYCNAYAYVESPSDMDYWGQGTQVTVSS”, the “polyreactivity (PSR sort gate)” value is on record as “low polyreactivity”.
The entry for “QVQLVESGGGLVQAGGSLRLSCAASGSIFWSYAMGWYRQAPGKERELVAVINWSGGSTYYADSVKGRFTISRDNAKNTVYLQMNSLKPEDTAVYYCNKDLGPTKRPFTFDYWGQGTQVTVSS” is “low polyreactivity”; for “QVQLVESGGGLVQAGGSLRLICAASGSIFTLYDMGWYRQAPGKERELVAAITSGGSTDYADSVKGRFTISRDNAKNTVYLQMNSLKPEDTAVYYCNAEAYPYWYRGASREYDYWGQGTQVTVSS” it is “low polyreactivity”.
The entry for “QVQLVESGGGLVQAGGSLRLSCAASGFTFRYYTMGWYRQAPGKERELVARITTGGSTKYADSVKGRFTISRDNAKNTVYLQMNSLKPEDTAVYYCAARQYKWWFSQDGYDYWGQGTQVTVSS” is “high polyreactivity”; for “QVQLVESGGGLVQAGGSLRLSCAASGFTFNAYAMGWYRQAPGKERELVAAINVSGGITYYADSVKGRFTISRDNAKNTVYLQMNSLKPEDTAVYYCARDSYYSQVYRRGYSVPWRLDYWGQGTQVTVSS” it is “low polyreactivity”.
“QVQLVESGGGLVQAGGSLRLSCAASGITFYGYVMGWYRQAPGKERELVAAISVRGGSTYYADSVKGRFTISRDNAKNTVYLQMNSLKPEDTAVYYSAAWSYAYYYRLRYVSHDYWRQGTQVTVSS”: the “polyreactivity (PSR sort gate)” value was “high polyreactivity”.
As to “QVQLVESGGGLVQAGGSLRLSCAASGGIFRGNAMGWYRQAPGKERELVAAISSSGGSTYYADSVKVRFTISRDNSKYTVYLEMYSLKPEDTAVYYCAAYAGSFYYWGQGTQVTVSS”, the “polyreactivity (PSR sort gate)” value is listed as “high polyreactivity”.
